Broadly, the pKd is the negative decadic logarithm of the Kd, by convention in mol/L.

pKd: −log10 of the molar value.

The source of these data is publication PMC10570038.

This data set addresses RBPMS-A dC20 (rat) (UniProt A0A8I6G705). The experiment in a line: EMSA. The conditions noted are these: apparent; EMSA: 10 nM RNA, 25 mM HEPES pH 7.9, 100 mM KCl, 2 mM MgCl2, 0.625 mM DTT, 0.1 mg/ml BSA, 5% glycerol, 30 C 1 h, then 5 mg/ml heparin 10 min; 5% native PAGE in …. A general note: In EMSA bound probe runs differently from free probe, usually more slowly.

Sequence of RBPMS-A dC20 (rat) (A0A8I6G705 1-177): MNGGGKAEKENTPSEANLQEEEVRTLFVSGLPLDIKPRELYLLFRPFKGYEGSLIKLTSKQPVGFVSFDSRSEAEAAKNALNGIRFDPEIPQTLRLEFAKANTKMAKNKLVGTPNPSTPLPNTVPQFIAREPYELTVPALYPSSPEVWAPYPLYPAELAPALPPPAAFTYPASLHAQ

Turning to “GUCUACGCACCCUCAACCCGCACCUUGCGGGAUG [(CAC)2]”, the pKd was 5.60.
